Residue numbers refer to the chain shown, from its start.
Key:
[1] = target: T1, human 51-kDa pseudo-Cath-D (human, UniProt P07339 47-412, limits assumed); experiment: cleavage of fluorogenic substrate M2295 by pseudo-Cath-D at pH 6, competitive inhibition fit (n=3)
T1 construct: domain: 51-kDa pseudo-Cath-D

[2] = target: T2, human mature (34+14-kDa) Cath-D (human, UniProt P07339 65-162; P07339 169-412); experiment: cleavage of fluorogenic substrate M0938 by mature Cath-D at pH 6, competitive inhibition fit (n=3)
T2 construct: domain: 14-kDa light chain;domain: 34-kDa heavy chain; Purified from human liver (Sigma Aldrich); also called mature Cath-D; mature cath-D
T2 sequence (P07339 65-162 limits assumed, chain 1 of 2): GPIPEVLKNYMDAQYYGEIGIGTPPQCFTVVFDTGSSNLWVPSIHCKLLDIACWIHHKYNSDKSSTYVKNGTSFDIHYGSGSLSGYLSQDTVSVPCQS
T2 sequence (P07339 169-412 limits assumed, chain 2 of 2): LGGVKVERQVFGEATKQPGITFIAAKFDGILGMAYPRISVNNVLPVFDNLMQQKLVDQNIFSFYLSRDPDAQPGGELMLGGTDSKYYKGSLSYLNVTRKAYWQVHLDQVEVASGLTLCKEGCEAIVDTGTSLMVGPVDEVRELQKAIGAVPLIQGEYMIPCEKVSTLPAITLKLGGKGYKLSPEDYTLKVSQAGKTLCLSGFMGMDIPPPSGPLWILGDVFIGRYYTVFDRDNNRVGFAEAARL

T1 sequence (P07339 47-412 limits assumed): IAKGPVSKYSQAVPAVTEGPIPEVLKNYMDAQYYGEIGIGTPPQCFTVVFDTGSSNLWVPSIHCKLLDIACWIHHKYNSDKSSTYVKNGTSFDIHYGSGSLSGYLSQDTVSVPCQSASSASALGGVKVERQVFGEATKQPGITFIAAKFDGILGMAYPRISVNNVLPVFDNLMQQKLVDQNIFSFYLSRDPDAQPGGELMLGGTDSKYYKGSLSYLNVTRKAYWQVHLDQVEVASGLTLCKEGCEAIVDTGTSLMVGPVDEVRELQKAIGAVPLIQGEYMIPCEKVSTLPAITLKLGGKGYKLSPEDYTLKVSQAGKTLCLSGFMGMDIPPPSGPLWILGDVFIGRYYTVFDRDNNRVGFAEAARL

B1: anti-Cath-D scFv E2 (scFv, V domains shown)
VH: EVQLVESGGSLVKPGGSLRLSCAASGFTFSNSYMNWVRQAPGKGLEWISYISGSSRYSYADFVKGRFTISRDNATNSLYLQMNSLRAEDTAVYYCVRSSNSYFGGGMDVWGRGTLVTVSS
VL: QSVLTQPASVSGSPGQSITISCAGTSSDVGGSYGVSWYQQHPGKAPKLMIYGDSYRPSGVSNRFSGSKSGNTASLTISGLQAEDEADYYCSSYTNYSTRVFGGGTKLAVL
- Ki [1]: 754 nM
- Ki [2]: 24 nM

B2: anti-Cath-D scFv F1 (scFv, V domains shown)
VH: EVQLVESGGSLVKPGGSLRLSCAASGFTSNNYMNWVRQAPGKGLEWISYISGSSRYISYADFVKGRFTISRDNATNSLYLQMNSLRAEDTAVYYCVRSSNSGGMDVWGRGTLVTVSS
VL: B1 VL with S32Y, G52Y, N95S, Y96N
- Ki [1]: 212 nM
- Ki [2]: 100 nM

From patent publication US20180127510A1 (INSERM INSTITUT NATIONAL DE LA SANT ET DE LA RECHERCHE M …, published 2018)
